One may read the Kd as the constant that tells how readily two partners part at equilibrium.

Data set [1] addresses T1, PCBP-2 (poly(C)-binding protein 2) (UniProt Q15366 1-365). The data set is described as follows: ELONA-qPCR; Kd in range 8.4-89.9 nM, value in figure; ELONA: 100 mM HEPES pH 7.4, 100 mM NaCl, 6 mM MgCl2, 37 °C, 60 min, PCBP-2 (10 pmol) immobilized on Cu2+ plates; EMSA: 40 mM Tris-HCl pH 7.5, 250 mM NaCl, 0.1%. Conditions: protein: recombinant; tags: N-terminal 6xHis. In general terms: A gel shift assay detects complexes by their altered migration in electrophoresis.

In data set [2] the target is T1, PCBP-2 (poly(C)-binding protein 2). The data set is described as follows: ELONA-qPCR; Kd in range 8.4-89.9 nM, value in figure; highest DNA Bmax; ELONA: 100 mM HEPES pH 7.4, 100 mM NaCl, 6 mM MgCl2, 37 °C, 60 min, PCBP-2 (10 pmol) immobilized on Cu2+ plates; EMSA: 40 mM Tris-HCl pH 7.5, 250 mM NaCl, 0.1%. Conditions: protein: recombinant; tags: N-terminal 6xHis.
Data set [3] has the same target. The data set is described as follows: ELONA-RTqPCR; 6 mM Mg2+; ELONA: 100 mM HEPES pH 7.4, 100 mM NaCl, 6 mM MgCl2, 37 °C, 60 min, PCBP-2 (10 pmol) immobilized on Cu2+ plates; EMSA: 40 mM Tris-HCl pH 7.5, 250 mM NaCl, 0.1%. Conditions: protein: recombinant; tags: N-terminal 6xHis.
Data set [4] has the same target. The data set is described as follows: ELONA-RTqPCR; Kd in range 24.1-276.5 nM, value in figure; ELONA: 100 mM HEPES pH 7.4, 100 mM NaCl, 6 mM MgCl2, 37 °C, 60 min, PCBP-2 (10 pmol) immobilized on Cu2+ plates; EMSA: 40 mM Tris-HCl pH 7.5, 250 mM NaCl, 0.1%. Conditions: protein: recombinant; tags: N-terminal 6xHis.
Data set [5] shares this target. The data set is described as follows: ELONA-RTqPCR; Kd in range 24.1-276.5 nM, value in figure; highest RNA Bmax; ELONA: 100 mM HEPES pH 7.4, 100 mM NaCl, 6 mM MgCl2, 37 °C, 60 min, PCBP-2 (10 pmol) immobilized on Cu2+ plates; EMSA: 40 mM Tris-HCl pH 7.5, 250 mM NaCl, 0.1%. The note with it: protein: recombinant; tags: N-terminal 6xHis.
For data set [6] the target is unchanged. The data set is described as follows: EMSA; 0.1-27.1 nM protein; two retarded complexes; ELONA: 100 mM HEPES pH 7.4, 100 mM NaCl, 6 mM MgCl2, 37 °C, 60 min, PCBP-2 (10 pmol) immobilized on Cu2+ plates; EMSA: 40 mM Tris-HCl pH 7.5, 250 mM NaCl, 0.1%. Conditions: protein: recombinant; tags: N-terminal 6xHis; label: 32P-CTP uniform.
Data set [7] shares this target. The data set is described as follows: ELONA-qPCR; 6 mM Mg2+; ELONA: 100 mM HEPES pH 7.4, 100 mM NaCl, 6 mM MgCl2, 37 °C, 60 min, PCBP-2 (10 pmol) immobilized on Cu2+ plates; EMSA: 40 mM Tris-HCl pH 7.5, 250 mM NaCl, 0.1%. Conditions: protein: recombinant; tags: N-terminal 6xHis.

T1 sequence (Q15366 whole entry): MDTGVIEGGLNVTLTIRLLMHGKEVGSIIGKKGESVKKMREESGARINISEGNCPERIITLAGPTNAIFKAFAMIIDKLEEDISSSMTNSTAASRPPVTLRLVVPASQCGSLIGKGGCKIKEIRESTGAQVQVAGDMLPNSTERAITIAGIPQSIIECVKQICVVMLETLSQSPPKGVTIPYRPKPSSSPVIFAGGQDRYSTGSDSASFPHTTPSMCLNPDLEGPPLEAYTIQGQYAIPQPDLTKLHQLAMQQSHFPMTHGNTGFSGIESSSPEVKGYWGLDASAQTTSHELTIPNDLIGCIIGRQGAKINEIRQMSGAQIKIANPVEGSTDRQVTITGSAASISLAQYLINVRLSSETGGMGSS

B1: 05DS10-12 (ssDNA)
DNA: GCGGATCCAGACTGGTGTGCAGGTATGCCGGATCATGTCGTGAAAGTATCCATTTCTCGCCCTAAAGACAAGCTTC
Consider B1, for which the binding result in data set [1] was “binds”.

B2: 05DS10-01 (ssDNA)
DNA: GCGGATCCAGACTGGTGTGCACAGCACATGCATTACTGCGGTAATCCGTGTCCTTTGTGCCCTAAAGACAAGCTTC
Regarding B2, in data set [1], the binding result is “binds”.

B3: 05DS10-05 (ssDNA)
DNA: GCGGATCCAGACTGGTGTACCTGTTAGCAAGAGTTTATTATGTAAAGATATCCGTTGGGCCCTAAAGACAAGCTTC
On to B3, for which the binding result in data set [2] is “binds”.

B4: 05RS10-09 (ssRNA)
RNA: GGGGCGGAUCCAGACUGGUGUACACGGUGUUUAGUAGUUUAAUGAAUCUUUUAGUUCUUGGGCCCUAAAGACAAGCUUC
Turning to B4, the Kd in data set [3] was determined as 0.0241 µM.

B5: 05RS10-19 (ssRNA)
RNA: GGGGCGGAUCCAGACUGGUGUAAUCGAUCUUGCAUGCUAUUCGUCAAUCAACUCUUGCCGGCCCUAAAGACAAGCUUC
Regarding B5, in data set [4], the binding result is recorded as “binds”.

B6: 05DS10-26 (ssDNA)
DNA: GCGGATCCAGACTGGTGTGGGAATGTTGTTTATGTATTTGTTCTGAGCTCTACCTTTGCCCTAAAGACAAGCTTC
With B6, the binding result in data set [1] was “binds”.

B7: 05DS10-22 (ssDNA)
DNA: GCGGATCCAGACTGGTGTCAATGGTACTCTTCATTGTAGTCGCTTTGTTTATTAGCCGGCCCTAAAGACAAGCTTC
As to B7, the binding result in data set [1] was “binds”.

B8: 05RS10-11 (ssRNA)
RNA: GGGGCGGAUCCAGACUGGUGUGAUCAUAUUAAUAAGACGCUUCCAGGUACGUCGCUGUUGGGCCCUAAAGACAAGCUUC
Turning to B8, in data set [4], the binding result is recorded as “binds”.

B9: 05RS10-04 (ssRNA)
RNA: GGGGCGGAUCCAGACUGGUGUCAUUUAGCAAAAACACUUGUAUAAUUCAAGUCGAUGUUGGGCCCUAAAGACAAGCUUC
Consider B9, for which the binding result in data set [4] is listed as “binds”.

B10: 05DS10-02 (= 05DS10-03) (ssDNA)
DNA: GCGGATCCAGACTGGTGTACTGGGCTAGTTGCCTCTGCAGATTAGATGATGACAGTGGCCCTAAAGACAAGCTTC
On to B10, for which the binding result in data set [1] is reported as “binds”.

B11: 05DS10-18 (ssDNA)
DNA: GCGGATCCAGACTGGTGTCCTATCTATAATTTTGCAGTCCACGTTTCTCTTGTGTGTGCCCTAAAGACAAGCTTC
With B11, in data set [1], the binding result is listed as “binds”.

B12: 05RS10-18 (ssRNA)
RNA: GGGGCGGAUCCAGACUGGUGUUUAAUUAUGUAAGUAAAUUGUUUUUUGACUCUCGCAUUGGGCCCUAAAGACAAGCUUC
As to B12, the binding result in data set [4] is recorded as “binds”.

B13: 05RS10-32 (ssRNA)
RNA: GGGGCGGAUCCAGACUGGUGUCUUCCUGCUUGUGUUAUUUUCUAUUGUCGUGCGUGUUCGGGCCCUAAAGACAAGCUUC
Consider B13, for which the binding result in data set [5] is on record as “binds”.

B14: 05RS10-32-32P (ssRNA)
RNA: B13 RNA
B14: the binding result in data set [6] was “binds”.

B15: 05RS10-30 (ssRNA)
RNA: GGGGCGGAUCCAGACUGGUGUUUCCGCAAAGAGUGGUCUUUGUUAAUGUCAGGUUUCUUCGGCCCUAAAGACAAGCUUC
For B15, the binding result in data set [4] is on record as “binds”.

B16: 05RS10-34 (ssRNA)
RNA: GGGGCGGAUCCAGACUGGUGUGAACACAGACGAGAACGUUGCAUAAAACCGCUUUUUUGGGCCCUAAAGACAAGCUUC
Take B16: in data set [4], the binding result is listed as “binds”.

B17: 05DS10-21 (ssDNA)
DNA: GCGGATCCAGACTGGTGTGGAGGTTAGCCGAAACACGTATACGCGTATTTATCCTCGGGCCCTAAAGACAAGCTTC
Take B17: in data set [7], the Kd is 0.0084 µM.

Source of the values: article PMC6480920, “A Combined ELONA-(RT)qPCR Approach for Characterizing DNA and RNA Aptamers Selected against PCBP-2”.
